Columns and labels:
[1] = biological target: T1, human TIGIT expressed on cells (human, UniProt Q495A1 22-244); test: cell-based or functional assay
T1 sequence (looked up): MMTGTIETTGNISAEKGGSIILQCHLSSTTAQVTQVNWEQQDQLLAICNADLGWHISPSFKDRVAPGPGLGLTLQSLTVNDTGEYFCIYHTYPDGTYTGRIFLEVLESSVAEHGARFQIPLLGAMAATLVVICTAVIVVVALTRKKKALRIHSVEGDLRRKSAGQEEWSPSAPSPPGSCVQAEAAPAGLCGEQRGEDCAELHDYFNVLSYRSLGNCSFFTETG

human TIGIT-His protein [2] = biological target: T2, human TIGIT-His protein (human, UniProt Q495A1 22-141); test: ELISA, human TIGIT-His coated
T2 construct: Recombinant protein; also called human TIGIT-his tag; hTIGIT-His
T2 sequence (looked up): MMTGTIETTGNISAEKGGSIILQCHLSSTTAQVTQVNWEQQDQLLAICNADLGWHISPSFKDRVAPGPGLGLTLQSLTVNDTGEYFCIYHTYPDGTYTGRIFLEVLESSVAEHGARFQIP
Method: To evaluate the binding activity of 76D12B10, the chimeric mAb was subjected to ELISA test. Briefly, microtiter plates were coated with human TIGIT-His protein at 0.5 µg/ml in PBS, 100µl/well at 4° C. overnight, then blocked with 150 µl/well of 1% BSA. Three-fold dilutions of 76D12B10 antibodies starting from 10 µg/ml were added to each well and incubated for 1 hour at 37° C. The plates were washed with PBS/Tween and then incubated with Goat-anti-human IgG antibody conjugated with Horse Radish Peroxidase (HRP) for 30 mins at 37° C. After washing, the plates were developed with TMB substrate and analyzed by spectrophotometer at OD 450 nm.
(§1) ELISA testing was carried out to evaluate the binding of chimeric antibodies to human, mouse, rat, and cyno TIGIT, respectively. Briefly, microtiter plates were coated with human, mouse, rat and cyno TIGIT proteins at 0.5 µg/ml in PBS, 100 µl/well at 4° C. overnight, then blocked with 150 µl/well of 1% BSA. Three-fold dilutions of chimeric antibodies or biotinylated chimeric antibodies starting from 10 µg/ml were added to each well and incubated for 1 hour at 37° C. The plates were washed with PBS/Tween and then incubated with Goat-anti-human IgG Fab antibody conjugated with Horse Radish Peroxidase (HRP) or Streptavidin-HRP for 30 mins at 37° C. After washing, the plates were developed with TMB substrate and analyzed by spectrophotometer at OD 450 nm.

mouse TIGIT protein = biological target: T3, mouse TIGIT protein (mouse, UniProt P86176 29-148, limits assumed); test: ELISA, mouse TIGIT coated at 0.5 µg/ml
T3 construct: Recombinant protein coated on the plate
T3 sequence (looked up): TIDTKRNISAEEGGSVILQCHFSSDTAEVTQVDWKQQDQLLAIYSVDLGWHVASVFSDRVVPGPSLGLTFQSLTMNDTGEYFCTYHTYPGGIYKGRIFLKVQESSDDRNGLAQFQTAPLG
Method: as §1

human TIGIT-His protein [3] = biological target: T2, human TIGIT-His protein; test: SPR (Biacore) affinity ranking, human TIGIT-His
human TIGIT-His protein [4] = biological target: T2, human TIGIT-His protein; test: SPR (Biacore T200), antibody captured on CM5 chip, TIGIT-His as analyte
Method: The binding of the 76D12B10 antibodies to recombinant TIGIT protein (human TIGIT-his tag) was tested with BIACORE™ using a capture method. The 76D12B10 mAbs was captured using CM5 chip. A series dilution of human TIGIT-his tag protein was injected over captured antibody for 1 min at a flow rate of 30 µl/min. The antigen was allowed to dissociate for 300 s. All the experiment were carried out on a Biacore T200. Data analysis was carried out using Biacore T200 evaluation software.

[5] = biological target: T4, biotin-labeled human TIGIT protein (human, UniProt Q495A1 22-141, biotin-labeled (sites not given)); test: ELISA blocking assay: CD155-hFc coated, biotin-labeled human TIGIT, antibody titrated
T4 construct: also called recombinant human TIGIT
T4 sequence (looked up): T2 sequence (looked up)
Method: To evaluate the blocking effects of Hu02 and Hu06 on recombinant human TIGIT to bind to its receptor CD155, an ELISA based receptor blocking assay was used.
Briefly, microtiter plates were coated with human CD155-hFc protein at 5 µg/ml in PBS, 100 µl/well at 4° C. overnight, then blocked with 150 µl/well of 1% BSA. 50 µl biotin-labeled human TIGIT protein and 3-fold dilutions of Hu02 and Hu06 antibodies starting from 10 µg/ml at 50 µl were added to each well and incubated for 1 hour at 37° C. The plates were washed with PBS/Tween and then incubated with Streptavidin-HRP for 10 mins at 37° C. After washing, the plates were developed with TMB substrate and analyzed by spectrophotometer at OD 450 nm.

human TIGIT-His protein [6] = biological target: T2, human TIGIT-His protein; test: ELISA, plate coated with human TIGIT-His, anti-human IgG-HRP, OD 450nm; unit taken from the axis Log[Conc.]/ng/ml
Method: (§2) To evaluate the antigen binding activity, the humanized antibodies were subjected to ELISA test. Briefly, microtiter plates were coated with human TIGIT-his protein at 0.5 µg/ml in PBS, 100 µl/well at 4° C. overnight, then blocked with 150 µl/well of 1% BSA. Three-fold dilutions of humanized antibodies starting from 3 µg/ml were added to each well and incubated for 1 hour at 37° C. The plates were washed with PBS/Tween and then incubated with Goat-anti-human IgG antibody conjugated with Horse Radish Peroxidase (HRP) for 30 mins at 37° C. After washing, the plates were developed with TMB substrate and analyzed by spectrophotometer at OD 450 nm.

human TIGIT-His protein [7] = biological target: T2, human TIGIT-His protein; test: as above; remark: listed apart in the source
Method: as §2, with “Hu02 and Hu06” for “the humanized antibodies”, “0.5 hour” for “30 mins”

NFAT luciferase production, EC50 [1]: 1240 pM | EC50 (human TIGIT-His protein [2]): 8.57 ng/mL | binding result (mouse TIGIT protein): no binding | Kd (human TIGIT-His protein [3]): 16.1 pM | koff (human TIGIT-His protein [3]): 0.000182 s⁻¹ | kon (human TIGIT-His protein [3]): 1.13e+07 M⁻¹ s⁻¹ | Kd (human TIGIT-His protein [4]): 259 pM | koff (human TIGIT-His protein [4]): 0.000326 s⁻¹ | kon (human TIGIT-His protein [4]): 1.26e+06 M⁻¹ s⁻¹ | IC50 [5]: 1110 ng/mL | EC50 (human TIGIT-His protein [6]): 9.37 ng/mL | EC50 (human TIGIT-His protein [7]): 7.6 ng/mL
B1: 76D12B10 chimeric antibody (antibody, V domains shown)
VH: DVQLQESGPGMVKPSQSLSLTCTATGYSITSGYDWHWIRHFPGKKLEWMGFIRDSGSTVYNPSLKGRISITHDTSKNRFFLKLNSVTPEDTATYFCARGLFWYFDVWGTGTTVTVSS
VL: DIQMTQSPASLSASVGETVTITCRTSENIFSYLAWYQQKQGNSPQLLVHNTKTLAEGVPSRFSGSGSGTQFSLKISNLQPEDFGSYYCQHHYGNPLTFGAGTKLELK
notes: Mouse variable regions of hybridoma clone 76D12B10; tested as chimeric mAb (detected with anti-human IgG); also called 76D12B10-Chimera; 76D12B10 chimera

From patent US11028172 (LEPU BIOPHARMA, dated 2021)
